Test results as given in publication PMC2922993.

Target: T1, BRAF-HDAC Complex 80 (BHC80)-PHD finger, Q96BD5
T1 chain: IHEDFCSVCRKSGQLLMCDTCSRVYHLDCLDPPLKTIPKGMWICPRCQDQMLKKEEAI
Test: ITC

- Kd: 19.6 µM
B1: unmodified H3 peptide (peptide)
chain: ARTKQTARKSTG
modifications: not checked
